# Source: patent US20230340419A1, “METHODS FOR GENERATION OF MOUSE AND HUMAN URETERIC BUD ORGANOIDS AND COLLECTING DUCT ORGANOIDS” (University of Southern California, priority 2020, published 2023)
# Columns and labels:
# Format in all cases: cell-based, mouse
# Wnt11-RFP UB organoid [1] = assay: Stage III 1st round screening of growth factors and small molecules for UB organoid culture condition; conditions: reagent added to FGF9 + C3 + TTNPB + GDNF; compared to that control group
# From the text: We employed this Wnt11-RFP reporter system as a readout to screen for a culture condition that maintained the progenitor identity of UPCs in vitro. T-shaped UBs were manually isolated from E11.5 kidneys of Wnt11-RFP mice, and immediately embedded into Matrigel to set up a 3D culture platform that supported epithelial branching. In this 3D culture format, built on previous efforts towards the ex vivo culture of UB, hundreds of different combinations of growth factors and small molecules were tested (see also the Materials and Techniques section below for details under subheading “Screening for optimal UB culture condition”).
# We systematically screened the optimal UB culture condition in four different stages (Stages I-IV).
# In Stage III, based on the optimized recipe consisting of FGF9, TTNPB, CHIR99021 (3 μM) and GDNF, we preformed our 1st round of screening of growth factors and small molecules targeting major developmental pathways (e.g. TGF-β, BMP, Wnt, FGF, Hedgehog and Notch) and others. The branching morphogenesis, growth rate and Wnt11-RFP were recorded as readouts (Table 1). […] Representative images were taken at least for LDN193189, A83-01, and R-Spondin 1. These individual hits were then subjected to a 2nd round of screening to test their effects in various combinations, eventually leading to the identification of the optimal UB progenitor culture medium UBCM consisting of FGF9, TTNPB, CHIR99021 (3 μM), GDNF, LDN193189, A83-01, R-Spondin1, JAKI and SB202190.
# UB organoids = assay: 2nd round of CD differentiation condition screening (qRT-PCR of Aqp2 and Foxi1); conditions: qRT-PCR, 7 days, under hBI+FGF9+Y27632 condition
# Method: The functions of the mature renal CD system are carried out by two major cell populations that are intermingled throughout the entire CD network. The more abundant principal cells (PCs) concentrate the urine and regulate Na^+/K^+ homeostasis via water and Na^+/K^+ transporters. The less abundant α- and β-intercalated cells (ICs) regulate normal acid-base homeostasis via secretion of H^+ or HCO3^− into the urine. The absence of an in vitro system recapitulating PC and IC development in an appropriate 3D context, constrains physiological exploration, disease modeling and drug screening on the renal CD system. With this limitation in mind, we developed a screen to establish conditions supporting the differentiation of CD organoids, assaying expression of Aqp2 and Foxi1, definitive markers for PC and IC lineages, respectively, by quantitative reverse transcription PCR (qRT-PCR), following 7 days of culture under variable but defined culture conditions (FIG. 2A).
# Agonists or antagonists targeting major developmental pathways (e.g. TGF-β, BMP, Wnt, FGF, Hedgehog and Notch) were tested, together with hormonal inputs known to regulate PC or IC activity (aldosterone and vasopressin).
# Wnt11-RFP UB organoid [2] = assay: Withdrawal of individual components from UBCM (Stage IV validation); conditions: component withdrawn from UBCM
# From the text: To determine whether UBCM culture conditions enabled clonal growth from a single UPC, dissociated E11.5 UBs were embedded at clonal density in Matrigel and cultured in UBCM medium. Around 30% of the single cells self-organized into E11.5 UB-like budding structures within 5 days, though a smaller percentage (3-5%) maintained Wnt11-RFP (FIG. 1G), an efficiency similar to clonal organoid formation for Lgr5^+ intestinal stem cells. Importantly, the clonally-derived Wnt11-RFP^+ budding structures were identical to intact E11.5 UB-derived organoids in both branching morphology and growth rate (Table 3, FIG. 1H).
# Lastly, in Stage IV, we asked whether each of the components in UBCM was essential.
Molecule,Wnt11-RFP (Wnt11-RFP UB organoid [1]),further results
"R-Spondin 1: UBCM component (protein, UniProt Q2MKA7 21-263, looked up) R-spondin-1: SRGIKGKRQRRISAEGSQACAKGCELCSEVNGCLKCSPKLFILLERNDIRQVGVCLPSCPPGYFDARNPDMNKCIKCKIEHCEACFSHNFCTKCKEGLYLHKGRCYPACPEGSSAANGTMECSSPAQCEMSEWSPWGPCSKKQQLCGFRRGSEERTRRVLHAPVGDHAACSDTKETRRCTVRRVPCPEGQKRRKGGQGRRENANRNLARKESKEAGAGSRRRKGQQQQQQQGTVGPLTSAGPA",Better,–
"FGF4: member of the FGF family (protein, UniProt P08620 31-206, looked up) Fibroblast growth factor 4: APTAPNGTLEAELERRWESLVALSLARLPVAAQPKEAAVQSGAGDYLLGIKRLRRLYCNVGIGFHLQALPDGRIGGAHADTRDSLLELSPVERGVVSIFGVASRFFVAMSSKGKLYGSPFFTDECTFKEILLPNNYNAYESYKYPGMFIALSKNGKTKKGNRVSPTMKVTHFLPRL",Worse,–
"BMP7: growth factor tested in screening (protein, UniProt P18075 293-431, looked up) Bone morphogenetic protein 7: STGSKQRSQNRSKTPKNQEALRMANVAENSSSDQRQACKKHELYVSFRDLGWQDWIIAPEGYAAYYCEGECAFPLNSYMNATNHAIVQTLVHFINPETVPKPCCAPTQLNAISVLYFDDSSNVILKKYRNMVVRACGCH",Better,Aqp2 expression (UB organoids): dramatically increased; Foxi1 expression (UB organoids): dramatically increased
"FGF10: member of the FGF family (protein, UniProt O15520 38-208, looked up) Fibroblast growth factor 10: QALGQDMVSPEATNSSSSSFSSPSSAGRHVRSYNHLQGDVRWRKLFSFTKYFLKIEKNGKVSGTKKENCPYSILEITSVEIGVVAVKAINSNYYLAMNKKGKLYGSKEFNNDCKLKERIEENGYNTYASFNWQHNGRQMYVALNGKGAPRRGQKTRRKNTSAHFLPMVVHS",Worse,Organoid growth (Wnt11-RFP UB organoid [1]): Slower
"FGF8: member of the FGF family (protein, UniProt P55075 23-233, looked up) Fibroblast growth factor 8: QEGPGRGPALGRELASLFRAGREPQGVSQQHVREQSLVTDQLSRRLIRTYQLYSRTSGKHVQVLANKRINAMAEDGDPFAKLIVETDTFGSRVRVRGAETGLYICMNKKGKLIAKSNGKGKDCVFTEIVLENNYTALQNAKYEGWYMAFTRKGRPRKGSKTRQHQREVHFMKRLPRGHHTTEQSLRFEFLNYPPFTRSLRGSQRTWAPEPR",Worse,–
"GDNF: glial cell-derived neurotrophic factor (protein, UniProt P39905 78-211, looked up) Glial cell line-derived …: SPDKQMAVLPRRERNRQAAAANPENSRGKGRRGQRGKNRGCVLTAIHLNVTDLGLGYETKEELIFRYCSGSCDAAETTYDKILKNLSRNRRLVSDKVGQACCRPIAFDDDLSFLDDNLVYHILRKHSAKRCGCI",–,Effect of withdrawal of the component from UBCM on organoid growth (Wnt11-RFP UB organoid [2]): growth arrest
